Data on 1 molecule can be found in patent publication CN114456264A (INST OF MICROBIOLOGY OF CHINESE ACADEMY OF SCIENCES, dated 2022).

This test deals with SARS-CoV RBD蛋白 (SARS-CoV, UniProt P59594 306-527). Briefly: SPR, Biacore 8K, RBD on SA chip, antibody as analyte. A general note: Surface plasmon resonance follows binding to a sensor surface in real time, without labels.

B1: 抗体IMCAS-364 (antibody, V domains shown)
VH: QVQLQESGGGVVQPGRSLRLSCAASGFTFSRYGMHWVRQAPGKGLEWVAVIWYDGSNKYYADSVKGRFTISRDNSKNTLYLQMNSLRADDTAVYYCAKQEGTYCSGGSCYSGLDYWGQGTLVTVSS
VL: not shown
Usually Kd stands for the concentration at which binding is half-saturated. High values mean weaker binding, low ones tighter binding. In turn, B1 yielded a Kd of 8.17 nM.
